The results in this text go back to PMC11347169.

The target of assay [1] is Simian virus 40 large T antigen (L-Tag) (simian virus 40) (UniProt P03070).
For assay [2], the target named is Human wild-type DNA polymerase δ (WT Pol δ) (human) (UniProt P28340).
Assay [3] has the same target. The experiment in a line: MST; His6-tagged Pol δ labelled with RED-Tris-NTA, 20 nM final; L-Tag titrated in 16 concentrations beginning with 500 nM; PBS-T buffer; incubated 40 min at 37°C; Monolith NT.115, premium-coated capillaries.

Turning to “Human fork protection complex (FPC): Claspin, TIMELESS, Tipin (from UniProt Q9HAW4 1-1339; Q9UNS1 1-1208; Q9BVW5 1-301)”, in assay [1], the saturation concentration of FPC for stimulating L-Tag unwinding in the bulk assay (25 nM L-Tag, 0.5 nM forked DNA) is less than 8 nM.

“Human mini-chromosome maintenance protein 10 (Mcm10) (from UniProt Q7L590 1-875) (natural protein)”: the saturation concentration of Mcm10 for stimulating L-Tag unwinding in the bulk assay (25 nM L-Tag, 0.5 nM forked DNA) in assay [1] was less than 8 nM.

Usually Kd stands for a measure of binding affinity in units of concentration. In assay [2], “Simian virus 40 large T antigen (L-Tag) (from UniProt P03070 1-708) (enzyme)” came in with a lifetime of Pol δ–PCNA on DNA in single-molecule flow-stretching assays: primer extension alone against leading-strand synthesis with L-Tag of 3 min. Also, the Kd in assay [3] was determined as 6.7 nM.
